Experimental findings from patent US7838495B2, “Compositions and methods of use of EPB1, and ErbB3 binding protein” (University of Maryland, Baltimore, priority 2007, dated 2010) are described below.

What all share (type): cell-based, human
In one assay the test system is LNCaP cells. The assay can be described thus: Growth response of LNCaP vector controls and EBP1 transfectants to DHT and bicalutamide. Conditions: LNCaP EBP1 transfectants (vector controls approximately 70%). As for the experimental part: Cell Growth Assays: To measure growth in complete media, cells (2×10^4) were seeded in triplicate in individual wells of 12-well tissue culture plates in RPMI-1640 with 10% FBS and cultured for the indicated number of days. Cells were trypsinized, stained with Trypan Blue (0.4%), and counted in a hemacytometer. For soft agar growth assays, increasing concentrations of cells (as indicated) were plated in 35 mm Petri dishes in complete media and 0.3% Difco Bacto Agar over an 0.5% agar layer. Colonies were counted after 10 days of incubation. For studies assessing the effect of dihydrotestosterone (DHT) on cell growth, cells (2×10^4) were plated in 12-well plates in complete media. After a 24-hour attachment period, the medium was replaced with steroid-free medium [phenol red-free RPMI 1640 and 5% charcoal-stripped FBS (Sigma)] for 48 hours. The final concentration of testosterone in the steroid-reduced media was less than 5 pM. After 48 hours of steroid depletion, cells were re-fed with fresh steroid-reduced medium with or without the indicated concentrations of DHT and/or bicalutamide (10 μM), and total cell numbers were assessed 7 days later.

Another assay concerns AU565 cells. The assay can be described thus: Western blot of ErbB2 in AU565 EBP1 transfectants. On the procedure:
FIG. 10A-C. Effect of ectopic expression of EBP1 on ErbB3 or ErbB2 protein levels. (A and B) Lysates of logarithmically growing MCF-7 vector control cells (CMV) or EBP1 transfected cells (Ebp1) or (C) AU565 cells were blotted with antibodies for ErbB3 or ErbB2 and actin as indicated. Data are representative of three experiments.
(§1) 2.5. Western blot analysis. Total cell extracts were prepared by direct lysis of cells with lysis buffer [50 mM Tris-HCl (pH 7.4), 1 mM EDTA, 250 mM NaCl, 1% Triton X-100, 0.5 mM DTT, and 1× Complete™ protease inhibitor]. Protein concentrations were measured using a detergent compatible kit (Bio-Rad). Proteins (30 lg per well) were resolved by SDS-PAGE, transferred to PVDF membranes, and immunoblotted as described. […] Images were quantified using IMAGE-J software (NIH). […] Relative cell numbers were determined 4 days later using a Promega Proliferation Reagent as per manufacturer's instructions with absorbance being read at 490 nm using a Dynex plate reader. […] Data were analyzed using a two-tailed Students t-test and a p <0.05 was deemed statistically significant. […]

For another assay, the system named is MCF-7 cells. The assay can be described thus: HRG-induced MAPK and AKT phosphorylation in MCF-7 transfectants. As to conditions: EBP1 overexpressing MCF-7 cells. As for the experimental part:
FIG. 11A-C. Ebp1 affects HRG-induced downstream signaling pathways. Serum starved MCF-7 vector control (CMV) or EBP1 transfected cells (Ebp1) cells were stimulated with HRG (20 ng/ml) for the indicated times. Cells lysates were blotted with antibodies to (A) phosphor MAPK and total MAPK or (B) phospho-Akt or total AKT. Data are representative of three experiments. […] Eight hours after transfection, cells were refed with media with 2% serum and the indicated concentrations of HRG. Growth was assessed by MTT assay 3 days later. Data are representative of two experiments.
as §1

B1: EBP1: ErbB3 binding protein (SEQ ID NO: 2), AR corepressor, here ectopically expressed in cancer cells by stable transfection of an expression plasmid (protein, listed as Homo sapiens)
chain: MSGEDEQQEQTIAEDLVVTKYKMGGDIANRVLRSLVEASSSGVSVLSLCEKGDAMIMEETGKIFKKEKEMKKGIAFPTSISVNNCVCHFSPLKSDQDYILKEGDLVKIDLGVHVDGFIANVAHTFVVDVAQGTQVTGRKADVIKAAHLCAEAALRLVKPGNQNTQVTEAWNKVAHSFNCTPIEGMLSHQLKQHVIDGEKTIIQNPTDQQKKDHEKAEFEVHEVYAVDVLVSSGEGKAKDAGQRTTIYKRDPSKQYGLKMKTSRAFFSEVERRFDAMPFTLRAFEDEKKARMGVVECAKHELLQPFNVLYEKEGEFVAQFKFTVLLMPNGPMRITSGPFEPDLYKSEMEVQDAELKALLQSSASRKTQKKKKKKASKTAENATSGETLEENEAGD
modifications: FLAG tag
Regarding B1, the “growth inhibition by the withdrawal of androgens” value in the assay with LNCaP cells is on record as 60%. In addition, the “decrease of ErbB2 protein” value in the assay on AU565 cells was 57%. Moreover, the “basal MAPK phosphorylation” value with MCF-7 cells is reported as “constitutively phosphorylated”.
